Data reported in the supplement of paper PMC7877785.
± gives the uncertainty stated by the source.

Assay: self-splicing fitness, log relative to wild type (ln ratio); higher = more splicing; Tetrahymena group I intron in knt gene, E. coli kanamycin selection, DiMSum; sequences stand for … in CUCUCU…GGAGGGAAAAGUUAUCAGGCAUGCACCUGGUAGCUAGUCUUUAAACCAAUAGAUUGCAUCGGUUUAAAAGGCAAGACCGUCAAAUUGCGGGAAAGGGGUCAACAGCCGUUCAGUACCAAGUCUCAGGGGAAACUUUGAGAUGGCCUUGCAAAGGGUAUGGUAAUAAGCUGACGGACAUGGUCCUAACCACGCAGCCAAGUCCUAAGUCAACAGAUCUUCUGUUGAUAUGGAUGCAGUUCACAGACUAAAUGUCGGUCGGGGAAGAUGUAUUCUUCUCAUAAGAUAUAGUCGGACCUCUCCUUAAUGGGAGCUAGCGGAUGAAGUGAUGCAACACUGGAGCCGCUGGGAACUAAUUUGUAUGCGAAAGUAUAUUGAUUAGUUUUGGAGUACUCGUGGUCG
Summary of the method: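 Library with all eight P1ex-region intron nucleotides randomised, intron inside the knt kanamycin-resistance gene on pET-22b(+), in E. coli BL21(DE3). Cells grew overnight at 37°C or 30°C on LB agar with or without 25 μg/mL kanamycin (plus 100 μg/mL carbenicillin, 50 μM IPTG, 0.2% rhamnose), in six replicate transformations. Pooled colonies were amplicon-sequenced on Illumina HiSeq 2500. DiMSum fitness is the error-weighted combination of wild-type-normalised replicate fold changes, kanamycin versus none.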

CUCUAGCAAUAUUACGAGAG
self-splicing fitness (ln) (30 °C): -2.9 ± 0.18
self-splicing fitness (ln) (37 °C): -1.69 ± 0.2

CUCUAGCAAUAUUACGAGGG
self-splicing fitness (ln) (30 °C): -3.28 ± 0.22
self-splicing fitness (ln) (37 °C): -1.45 ± 0.18

CUCUAGCAAUAUUACGAGUA
self-splicing fitness (ln) (37 °C): -1.18 ± 0.21

CUCUAGCAAUAUUACGAGUU
self-splicing fitness (ln) (30 °C): -3.44 ± 0.38
self-splicing fitness (ln) (37 °C): -3.55 ± 0.42

CUCUAGCAAUAUUACGAUAG
self-splicing fitness (ln) (30 °C): -3.88 ± 0.2
self-splicing fitness (ln) (37 °C): -3.58 ± 0.28

CUCUAGCAAUAUUACGAUCA
self-splicing fitness (ln) (30 °C): -2.28 ± 0.23
self-splicing fitness (ln) (37 °C): -2.58 ± 0.33

CUCUAGCAAUAUUACGAUGU
self-splicing fitness (ln) (30 °C): -3.53 ± 0.22
self-splicing fitness (ln) (37 °C): -2.92 ± 0.25

CUCUAGCAAUAUUACGCAAU
self-splicing fitness (ln) (37 °C): -3.09 ± 0.38

CUCUAGCAAUAUUACGCAGC
self-splicing fitness (ln) (30 °C): -3.2 ± 0.25

CUCUAGCAAUAUUACGCCAU
self-splicing fitness (ln) (37 °C): -3.56 ± 0.33

CUCUAGCAAUAUUACGCCCG
self-splicing fitness (ln) (37 °C): -0.832 ± 0.42

CUCUAGCAAUAUUACGCGAG
self-splicing fitness (ln) (30 °C): -3.63 ± 0.25
self-splicing fitness (ln) (37 °C): -3.28 ± 0.37

CUCUAGCAAUAUUACGCGAU
self-splicing fitness (ln) (30 °C): -3.29 ± 0.17
self-splicing fitness (ln) (37 °C): -2.88 ± 0.19

CUCUAGCAAUAUUACGCUCA
self-splicing fitness (ln) (30 °C): -1.32 ± 0.3
self-splicing fitness (ln) (37 °C): -3.25 ± 0.37

CUCUAGCAAUAUUACGCUCU
self-splicing fitness (ln) (30 °C): -3.22 ± 0.19
self-splicing fitness (ln) (37 °C): -3.77 ± 0.31

CUCUAGCAAUAUUACGCUUA
self-splicing fitness (ln) (30 °C): -4 ± 0.37
self-splicing fitness (ln) (37 °C): -3.06 ± 0.27

CUCUAGCAAUAUUACGCUUG
self-splicing fitness (ln) (30 °C): -3.57 ± 0.24
self-splicing fitness (ln) (37 °C): -3.45 ± 0.42

CUCUAGCAAUAUUACGGCAC
self-splicing fitness (ln) (30 °C): -2.61 ± 0.26

CUCUAGCAAUAUUACGGCUC
self-splicing fitness (ln) (30 °C): -3.83 ± 0.22
self-splicing fitness (ln) (37 °C): -2.09 ± 0.21

CUCUAGCAAUAUUACGGGAA
self-splicing fitness (ln) (30 °C): -2.54 ± 0.14
self-splicing fitness (ln) (37 °C): -1.11 ± 0.11

CUCUAGCAAUAUUACGGGAG
self-splicing fitness (ln) (30 °C): -3.78 ± 0.19
self-splicing fitness (ln) (37 °C): -2.26 ± 0.19

CUCUAGCAAUAUUACGGUGA
self-splicing fitness (ln) (30 °C): -3.56 ± 0.21
self-splicing fitness (ln) (37 °C): -1.8 ± 0.2

CUCUAGCAAUAUUACGGUUC
self-splicing fitness (ln) (30 °C): -2.69 ± 0.17
self-splicing fitness (ln) (37 °C): -2.46 ± 0.29

CUCUAGCAAUAUUACGUAGC
self-splicing fitness (ln) (30 °C): -3.51 ± 0.37
self-splicing fitness (ln) (37 °C): -3.53 ± 0.46

CUCUAGCAAUAUUACGUUUC
self-splicing fitness (ln) (30 °C): -5.02 ± 0.45
self-splicing fitness (ln) (37 °C): -2.62 ± 0.19

CUGAAGCAAUAUUACGAAGA
self-splicing fitness (ln) (30 °C): -2.5 ± 0.36
self-splicing fitness (ln) (37 °C): -0.888 ± 0.25

CUGAAGCAAUAUUACGAAGU
self-splicing fitness (ln) (30 °C): -3.58 ± 0.2
self-splicing fitness (ln) (37 °C): -2.77 ± 0.41

CUGAAGCAAUAUUACGACAC
self-splicing fitness (ln) (30 °C): -2.05 ± 0.32

CUGAAGCAAUAUUACGACGG
self-splicing fitness (ln) (30 °C): -0.289 ± 0.15
self-splicing fitness (ln) (37 °C): -0.879 ± 0.14

CUGAAGCAAUAUUACGAUCA
self-splicing fitness (ln) (30 °C): -1.68 ± 0.13
self-splicing fitness (ln) (37 °C): -1.53 ± 0.13

CUGAAGCAAUAUUACGCCGU
self-splicing fitness (ln) (30 °C): -2.92 ± 0.31
self-splicing fitness (ln) (37 °C): -2.4 ± 0.3

CUGAAGCAAUAUUACGCGCG
self-splicing fitness (ln) (30 °C): 0.18 ± 0.092
self-splicing fitness (ln) (37 °C): -0.0678 ± 0.075

CUGAAGCAAUAUUACGCUAA
self-splicing fitness (ln) (37 °C): -2.45 ± 0.32

CUGAAGCAAUAUUACGGACG
self-splicing fitness (ln) (30 °C): 0.0263 ± 0.084
self-splicing fitness (ln) (37 °C): 0.166 ± 0.1

CUGAAGCAAUAUUACGGAGC
self-splicing fitness (ln) (37 °C): -0.931 ± 0.49

CUGAAGCAAUAUUACGGAGU
self-splicing fitness (ln) (30 °C): -3.2 ± 0.37
self-splicing fitness (ln) (37 °C): -2.33 ± 0.26

CUGAAGCAAUAUUACGGCCG
self-splicing fitness (ln) (30 °C): -0.134 ± 0.2
self-splicing fitness (ln) (37 °C): 0.451 ± 0.27

CUGAAGCAAUAUUACGGUUC
self-splicing fitness (ln) (30 °C): -3.05 ± 0.18
self-splicing fitness (ln) (37 °C): -3.5 ± 0.3

CUGAAGCAAUAUUACGUCAG
self-splicing fitness (ln) (30 °C): -4.14 ± 0.2
self-splicing fitness (ln) (37 °C): -1.46 ± 0.14

CUGAAGCAAUAUUACGUCGA
self-splicing fitness (ln) (30 °C): -2.2 ± 0.17
self-splicing fitness (ln) (37 °C): -1.57 ± 0.23

CUGAAGCAAUAUUACGUUGC
self-splicing fitness (ln) (30 °C): -4.09 ± 0.26
self-splicing fitness (ln) (37 °C): -0.264 ± 0.2

CUGCAGCAAUAUUACGCAAA
self-splicing fitness (ln) (30 °C): -2.18 ± 0.2
self-splicing fitness (ln) (37 °C): -3.55 ± 0.24

CUGCAGCAAUAUUACGCAGC
self-splicing fitness (ln) (30 °C): -2.88 ± 0.32

CUGCAGCAAUAUUACGCAUG
self-splicing fitness (ln) (30 °C): -2.5 ± 0.12
self-splicing fitness (ln) (37 °C): -1.8 ± 0.14

CUGCAGCAAUAUUACGCCAC
self-splicing fitness (ln) (30 °C): -2.82 ± 0.26
self-splicing fitness (ln) (37 °C): -2.82 ± 0.44

CUGCAGCAAUAUUACGCCCU
self-splicing fitness (ln) (30 °C): -3.15 ± 0.37
self-splicing fitness (ln) (37 °C): -1.71 ± 0.33

CUGCAGCAAUAUUACGCCGU
self-splicing fitness (ln) (37 °C): -1.3 ± 0.31

CUGCAGCAAUAUUACGCGUU
self-splicing fitness (ln) (30 °C): -3.32 ± 0.12
self-splicing fitness (ln) (37 °C): -2.1 ± 0.16

CUGCAGCAAUAUUACGCUAA
self-splicing fitness (ln) (30 °C): -3.28 ± 0.29

CUGCAGCAAUAUUACGGCCA
self-splicing fitness (ln) (30 °C): -1.25 ± 0.34
self-splicing fitness (ln) (37 °C): -0.578 ± 0.24

CUGCAGCAAUAUUACGGGUA
self-splicing fitness (ln) (30 °C): -3.32 ± 0.4
self-splicing fitness (ln) (37 °C): -0.797 ± 0.14

CUGCAGCAAUAUUACGUAAG
self-splicing fitness (ln) (30 °C): -0.296 ± 0.069
self-splicing fitness (ln) (37 °C): 0.277 ± 0.08

CUGCAGCAAUAUUACGUAUG
self-splicing fitness (ln) (30 °C): -1.27 ± 0.091
self-splicing fitness (ln) (37 °C): -1.19 ± 0.12

CUGCAGCAAUAUUACGUCCC
self-splicing fitness (ln) (30 °C): -1.66 ± 0.42

CUGCAGCAAUAUUACGUCGC
self-splicing fitness (ln) (30 °C): -4.61 ± 0.46
self-splicing fitness (ln) (37 °C): -2.83 ± 0.32

CUGCAGCAAUAUUACGUGGC
self-splicing fitness (ln) (30 °C): -3.72 ± 0.21
self-splicing fitness (ln) (37 °C): -3.03 ± 0.24

CUGGAGCAAUAUUACGAAUC
self-splicing fitness (ln) (30 °C): -3.47 ± 0.43
self-splicing fitness (ln) (37 °C): -1.68 ± 0.45

CUGGAGCAAUAUUACGAUCG
self-splicing fitness (ln) (30 °C): -1.7 ± 0.14
self-splicing fitness (ln) (37 °C): 0.264 ± 0.21

CUGGAGCAAUAUUACGGAAU
self-splicing fitness (ln) (37 °C): -2.05 ± 0.36

CUGGAGCAAUAUUACGGACG
self-splicing fitness (ln) (30 °C): -1.4 ± 0.11
self-splicing fitness (ln) (37 °C): -0.808 ± 0.11

CUGGAGCAAUAUUACGGCUG
self-splicing fitness (ln) (30 °C): -1.48 ± 0.15
self-splicing fitness (ln) (37 °C): -0.00856 ± 0.18

CUGGAGCAAUAUUACGGGGC
self-splicing fitness (ln) (30 °C): -4.12 ± 0.46
self-splicing fitness (ln) (37 °C): -2.29 ± 0.46

CUGGAGCAAUAUUACGGGUA
self-splicing fitness (ln) (30 °C): -2.59 ± 0.23
self-splicing fitness (ln) (37 °C): -1.77 ± 0.26

CUGGAGCAAUAUUACGUAAA
self-splicing fitness (ln) (30 °C): -3.78 ± 0.36
self-splicing fitness (ln) (37 °C): -2.22 ± 0.3

CUGGAGCAAUAUUACGUAAG
self-splicing fitness (ln) (30 °C): -1.06 ± 0.083
self-splicing fitness (ln) (37 °C): -0.0976 ± 0.1

CUGGAGCAAUAUUACGUAGU
self-splicing fitness (ln) (37 °C): -3.43 ± 0.46

CUGGAGCAAUAUUACGUCCA
self-splicing fitness (ln) (37 °C): -2.26 ± 0.44

CUGUAGCAAUAUUACGACCC
self-splicing fitness (ln) (30 °C): -1.04 ± 0.43

CUGUAGCAAUAUUACGACUC
self-splicing fitness (ln) (30 °C): -4.11 ± 0.42
self-splicing fitness (ln) (37 °C): -1 ± 0.3

CUGUAGCAAUAUUACGCAGC
self-splicing fitness (ln) (30 °C): -3.17 ± 0.41

CUGUAGCAAUAUUACGCAUU
self-splicing fitness (ln) (30 °C): -3.8 ± 0.27
self-splicing fitness (ln) (37 °C): -3.28 ± 0.47

CUGUAGCAAUAUUACGCCGG
self-splicing fitness (ln) (30 °C): -2.3 ± 0.2
self-splicing fitness (ln) (37 °C): -0.642 ± 0.19

CUGUAGCAAUAUUACGCCGU
self-splicing fitness (ln) (37 °C): -2.96 ± 0.4

CUGUAGCAAUAUUACGCCUC
self-splicing fitness (ln) (30 °C): -2.16 ± 0.4

CUGUAGCAAUAUUACGCCUU
self-splicing fitness (ln) (30 °C): -3.46 ± 0.35
self-splicing fitness (ln) (37 °C): -2.74 ± 0.3

CUGUAGCAAUAUUACGCUCA
self-splicing fitness (ln) (30 °C): -2.22 ± 0.22
self-splicing fitness (ln) (37 °C): -1.95 ± 0.23

CUGUAGCAAUAUUACGGAAA
self-splicing fitness (ln) (30 °C): -0.916 ± 0.34

CUGUAGCAAUAUUACGGUCG
self-splicing fitness (ln) (30 °C): -0.455 ± 0.09
self-splicing fitness (ln) (37 °C): 0.323 ± 0.12

CUGUAGCAAUAUUACGUACA
self-splicing fitness (ln) (30 °C): -3.41 ± 0.27
self-splicing fitness (ln) (37 °C): -1.65 ± 0.18

CUGUAGCAAUAUUACGUCGC
self-splicing fitness (ln) (30 °C): -2.89 ± 0.28
self-splicing fitness (ln) (37 °C): -3.19 ± 0.4

CUGUAGCAAUAUUACGUGAC
self-splicing fitness (ln) (30 °C): -0.572 ± 0.098
self-splicing fitness (ln) (37 °C): -0.0647 ± 0.16

CUGUAGCAAUAUUACGUGGU
self-splicing fitness (ln) (30 °C): -3.42 ± 0.24
self-splicing fitness (ln) (37 °C): -2.75 ± 0.28

CUGUAGCAAUAUUACGUGUG
self-splicing fitness (ln) (30 °C): -1.79 ± 0.058
self-splicing fitness (ln) (37 °C): -0.37 ± 0.071
